Patent US20110190477A1 (G2 INFLAMMATION, published 2011)
No end group written: not given here. *: point of attachment. Biotin = O=C1N[C@H]2[C@H](CS[C@H]2CCCCC(=O)*)N1

Legend:
[1] = target: T1, peptide PEP1 (residues 9-29 of human C5aR) (human); assay: ELISA, PEP1 coated at 10, 2 and 1 µg/ml
T1 construct: Coated directly on a MaxiSorp plate; also called N-terminal 9-29 peptide
T1 peptide: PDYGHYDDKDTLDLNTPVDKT
Protocol: A 384-well MaxiSorp plate (Nunc) was coated with a peptide corresponding to residues 9-29 of human C5aR (PEP1), at concentrations of 1-15 μg/ml in PBS/0.01% Tween-20 at 37° C. for 1.5 hours, then washed 3 times. The plate was blocked with 20 μl of blocking buffer (1% w/v BSA in PBS) per well for overnight at 4° C. The plate was washed 3 times with PBS/Tween buffer (0.05% v/v Tween-20 in PBS). 20 μl antibody (final concentration 5 μg/ml) was added to each well and the plate was incubated for 2 hours at 37° C. The plate was washed 3 times as above then 20 μl HRP-conjugated anti-human IgG kappa (1:8000 dilution in PBS/Tween 20) or HRP-conjugated anti-mouse IgG (1:7500 dilution) was added to each well. After a 2 hour incubation at room temperature the plate was washed 4 times (as above). The presence of peroxidase was detected by adding 20 μl of freshly prepared TMB Substrate reagent (BD Opt EIA) to each well and incubating at room temperature for 20 min. Finally after stopping the reaction with 20 μl 1M H₂SO₄ per well the plate was read at 450 nm (reference 620 nm) in a plate reader.
However, the anti-C5aR (CD88) mAb S5/1 (AbD Serotec, Cat No. MCA1283) which was raised against the human C5aR N-terminal peptide 1-31 did bind PEP1 at 5 μg/ml as expected.

[2] = target: T2, peptide 14 (12 mer from the 2nd extracellular loop of human C5aR) (human); assay: peptide ELISA, biotin peptide on streptavidin plate
T2 construct: worked out from 22 12 mers offset by one over 173-205; also called peptide no; 14
T2 peptide: Biotin-SGSGVLCGVDYSHDKR
From the text: (§1) A set of 22 overlapping peptides (12 mers), each offset by 1 residue from the next, spanning the second extracellular loop (3rd extracellular domain) of human C5aR was synthesised (Mimotopes, Melbourne). Each peptide was made with a biotin group and 4-amino acid linker (SGSG) at its N-terminus. One peptide synthesised, no. 23, was a 33 mer, representing the full length of the 2nd extracellular loop of hC5aR (residues 173-205 from SEQ ID NO:37), also had biotin-SGSG at the N-terminus.
(§2) The experiment was conducted by binding the peptides to a 384-well streptavidin-coated plate then incubating the antibodies with the peptides and detecting bound antibody with an anti-mouse IgG conjugated to horse radish peroxidase (HRP) as follows. Each peptide was dissolved in 200 μl of 60% DMSO to a concentration of 10 mg/ml. Peptides were further diluted 1:1000 to a working strength of 10 μg/ml with PBS/Tween 20/azide solution (0.1% w/v sodium azide in PBS/0.05% Tween 20).
(§3) A 384 well streptavidin-coated plate (Nunc) was blocked with 20 μl of blocking buffer (1% w/v BSA in PBS) per well. The plate was washed 4 times with PBS/Tween20 buffer (0.1% v/v Tween 20 in PBS). 20 μl of diluted peptide solution was transferred into a well and the plate incubated for 1 hour at room temperature. After washing the plate 4 times (as above) 20 μl antibody (0.5, 1, 1.25, 2.5 or 5 μg/ml) was added to the well and the plate was incubated for 1 hour at 20° C. The plate was washed 4 times as above then 20 μlHRP-conjugated anti-mouse IgG (1:5000 dilution in PBS/Tween 20) was added to each well. After a 1 hour incubation at room temperature the plate was washed 3 times (as above) then twice with PBS to remove traces of Tween. The presence of peroxidase was detected by adding 20 μl of freshly prepared TMB Substrate reagent (BD Opt EIA) to each well and incubating at room temperature for 20 min. Finally the plate was read at 650 nm/450 nm.

[3] = target: T3, peptide 9 (12 mer from the 2nd extracellular loop of human C5aR) (human); assay: as above
T3 construct: worked out from 22 12 mers offset by one over 173-205; also called peptide no
T3 peptide: Biotin-SGSGYFPPKVLCGVDY
From the text: as §1, §2, §3

[4] = target: T4, peptide 13 (12 mer from the 2nd extracellular loop of human C5aR) (human); assay: as above
T4 construct: worked out from 22 12 mers offset by one over 173-205; also called peptide no; 13
T4 peptide: Biotin-SGSGKVLCGVDYSHDK
From the text: as §1, §2, §3

[5] = target: T5, peptide 18 (12 mer from the 2nd extracellular loop of human C5aR) (human); assay: as above
T5 construct: worked out from 22 12 mers offset by one over 173-205; also called peptide no; 18
T5 peptide: Biotin-SGSGVDYSHDKRRERA
From the text: as §1, §2, §3

[6] = target: T6, peptide 11 (12 mer from the 2nd extracellular loop of human C5aR) (human); assay: as above
T6 construct: worked out from 22 12 mers offset by one over 173-205; also called peptide no; 11
T6 peptide: Biotin-SGSGPPKVLCGVDYSH
From the text: as §1, §2, §3

[7] = target: T7, peptide 12 (12 mer from the 2nd extracellular loop of human C5aR) (human); assay: as above
T7 construct: worked out from 22 12 mers offset by one over 173-205; also called peptide no; 12
T7 peptide: Biotin-SGSGPKVLCGVDYSHD
From the text: as §1, §2, §3

[8] = target: T8, peptide 22 (12 mer from the 2nd extracellular loop of human C5aR) (human); assay: as above
T8 construct: worked out from 22 12 mers offset by one over 173-205; also called peptide no; 22
T8 peptide: Biotin-SGSGHDKRRERAVAIV
From the text: as §1, §2, §3

[9] = target: T9, peptide 17 (12 mer from the 2nd extracellular loop of human C5aR) (human); assay: as above
T9 construct: worked out from 22 12 mers offset by one over 173-205; also called peptide no; 17
T9 peptide: Biotin-SGSGGVDYSHDKRRER
From the text: as §1, §2, §3

[10] = target: T10, peptide 16 (12 mer from the 2nd extracellular loop of human C5aR) (human); assay: as above
T10 construct: worked out from 22 12 mers offset by one over 173-205; also called peptide no; 16
T10 peptide: Biotin-SGSGCGVDYSHDKRRE
From the text: as §1, §2, §3

[11] = target: T11, peptide A8 (… with Ala at position 6, F4 of the epitope) (human); assay: peptide ELISA, alanine-scan peptides
T11 construct: The label A8 and position 6 follow from 'Peptides A2-A13 contained a single alanine substitution at each amino acid position from 12 to 1 respectively'
T11 peptide: Biotin-SGSGVREEYAPPKVLC
Protocol: as §3
Peptide A1 had no A1a substitution and peptide A14 was a scrambled version of peptide A1. Peptides A2-A13 contained a single alanine substitution at each amino acid position from 12 to 1 respectively. Binding of antibodies to the peptides coated on ELISA plates was carried out as described above.

Measured: binding result

B1: humanized anti-C5aR antibody hAb-Q (antibody, human IgG4 S228P, kappa)
light: DVVMTQSPLSLPVTLGEPASISCRSSQSLVHSNGNTYLHWYLQKPGQSPQLLIYKVSNRFSGVPDRFSGSGSGTDFTLKISRVEAEDVGVYFCSQSTLVPLTFGQGTKLEIKRTVAAPSVFIFPPSDEQLKSGTASVVCLLNNFYPREAKVQWKVDNALQSGNSQESVTEQDSKDSTYSLSSTLTLSKADYEKHKVYACEVTHQGLSSPVTKSFNRGEC
heavy: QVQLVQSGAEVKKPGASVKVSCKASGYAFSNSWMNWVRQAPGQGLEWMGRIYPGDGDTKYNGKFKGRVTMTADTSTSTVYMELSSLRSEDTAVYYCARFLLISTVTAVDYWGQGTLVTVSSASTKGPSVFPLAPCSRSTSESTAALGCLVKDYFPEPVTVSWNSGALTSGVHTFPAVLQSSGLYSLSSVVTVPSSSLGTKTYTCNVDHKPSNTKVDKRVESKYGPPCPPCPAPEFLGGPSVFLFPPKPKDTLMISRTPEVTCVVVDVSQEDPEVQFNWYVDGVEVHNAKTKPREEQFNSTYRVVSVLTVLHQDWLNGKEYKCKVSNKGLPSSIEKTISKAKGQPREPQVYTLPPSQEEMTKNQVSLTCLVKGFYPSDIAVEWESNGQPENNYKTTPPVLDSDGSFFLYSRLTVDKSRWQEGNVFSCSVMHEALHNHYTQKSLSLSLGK
notes: IgG4 with the Ser228Pro mutation; also called antibody Q; anti-C5aR ab
no binding (tested: 5 µg/ml): [1]
no binding: all other assays above

B2: humanized anti-C5aR antibody hAb-J (antibody, human IgG4 S228P, kappa)
light: DVVMTQSPLSLPVTLGEPASISCRSSQSLVHSNGNTYLHWYLQKPGQSPQLLIYKVSNRFSGVPDRFSGSGSGTDFTLKISRVEAEDVGVYFCSQSTLVPLTFGQGTKLEIKTVAAPSVFIFPPSDEQLKSGTASVVCLLNNFYPREAKVQWKVDNALQSGNSQESVTEQDSKDSTYSLSSTLTLSKADYEKHKVYACEVTHQGLSSPVTKSFNRGEC
heavy: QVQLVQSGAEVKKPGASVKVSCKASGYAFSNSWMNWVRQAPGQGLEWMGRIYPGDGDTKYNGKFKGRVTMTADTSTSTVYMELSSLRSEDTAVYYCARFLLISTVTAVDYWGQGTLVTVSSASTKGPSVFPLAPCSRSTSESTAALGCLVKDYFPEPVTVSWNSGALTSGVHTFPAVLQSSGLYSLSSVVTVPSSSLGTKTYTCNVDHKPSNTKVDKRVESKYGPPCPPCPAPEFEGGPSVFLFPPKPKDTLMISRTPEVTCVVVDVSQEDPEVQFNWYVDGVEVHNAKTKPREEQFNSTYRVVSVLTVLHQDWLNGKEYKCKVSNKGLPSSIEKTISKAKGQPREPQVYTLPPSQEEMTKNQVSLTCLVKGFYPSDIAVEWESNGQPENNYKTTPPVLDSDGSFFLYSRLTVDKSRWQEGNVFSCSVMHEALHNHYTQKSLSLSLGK
notes: also called antibody J
no binding (tested: 5 µg/ml): [1]
no binding: all other assays above

B3: mouse anti-C5aR monoclonal antibody 7F3 (antibody, V domains shown)
VH: QVQLQQSGPELVKPGASVKISCKASGYAFSNSWMNWVKQRPGKGLEWIGRIYPGDGDTKYNGKFKGKATLTADKSSSTAYMQLSSLTSEDSAVYFCARFLLISTVTAVDYWGQGTTLTVSS
VL: DVVMTQSPLSLPVSLGNQASISCRSSQSLVHSNGNTYLHWYLQKPGQSPKLLIYKVSNRFSGVPDRFSGSGSGTDFSLKISRVEAEDLGVYFCSQSTLVPLTFGAGTKLELK
notes: Mouse monoclonal from hybridoma ECACC 00110609; also called m7F3; mouse 7F3
not listed: [1] | [11]
no binding: all other assays above
